Source: US20250388646A1

Experiments:
Assay in all cases: cell-based or functional assay
[1] = molecular target: dominant negative Fas receptor (dnFAS)
[2] = molecular target: FAS-(41BB) construct (UniProt Q07011)
[3] = molecular target: FAS-(CD27) Fas redirector
[4] = molecular target: FAS-(MyD88-CD40) Fas redirector

Measured: percentage of viable cells after 24 hours of exposure to CH11

Chain of UniProt Q07011 (Q07011 other isoform, or with tags, fused parts or gaps): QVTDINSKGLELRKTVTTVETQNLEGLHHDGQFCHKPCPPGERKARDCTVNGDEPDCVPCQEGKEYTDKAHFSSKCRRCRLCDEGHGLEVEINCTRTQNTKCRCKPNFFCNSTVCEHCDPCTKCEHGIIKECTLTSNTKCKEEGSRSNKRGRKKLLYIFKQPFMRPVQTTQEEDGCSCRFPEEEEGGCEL
Chain of FAS-(CD27) Fas redirector (chain, as listed by the source): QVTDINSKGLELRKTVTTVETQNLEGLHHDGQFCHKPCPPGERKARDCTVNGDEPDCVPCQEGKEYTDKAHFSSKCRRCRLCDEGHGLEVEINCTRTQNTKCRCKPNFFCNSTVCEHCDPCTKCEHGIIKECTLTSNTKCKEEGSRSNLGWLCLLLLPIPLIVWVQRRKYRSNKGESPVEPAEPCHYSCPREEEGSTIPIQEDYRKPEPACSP
Chain of FAS-(MyD88-CD40) Fas redirector (chain, as listed by the source): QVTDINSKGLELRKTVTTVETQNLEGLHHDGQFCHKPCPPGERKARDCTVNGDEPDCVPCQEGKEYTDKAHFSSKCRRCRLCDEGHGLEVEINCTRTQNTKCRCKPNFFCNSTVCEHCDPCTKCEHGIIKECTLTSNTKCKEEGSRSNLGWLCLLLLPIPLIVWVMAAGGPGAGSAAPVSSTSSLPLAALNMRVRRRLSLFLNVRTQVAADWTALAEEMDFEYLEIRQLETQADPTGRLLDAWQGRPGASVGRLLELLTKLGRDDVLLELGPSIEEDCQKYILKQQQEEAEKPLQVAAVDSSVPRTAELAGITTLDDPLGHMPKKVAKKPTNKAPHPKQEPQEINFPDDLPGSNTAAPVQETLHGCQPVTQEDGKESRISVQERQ

CH11 (Sigma-Aldrich), a Fas agonist (antibody)
> 60%: all assays above
